# Measurements: patent US20160243226A1
# Experiments:
# [1] = molecular target: CD74 (human) (UniProt P04233); assay: cell-based or functional assay
# [2] = molecular target: CD20 (human) (UniProt P11836); assay: cell-based or functional assay
# CD20 (human), sequence (P11836 whole entry): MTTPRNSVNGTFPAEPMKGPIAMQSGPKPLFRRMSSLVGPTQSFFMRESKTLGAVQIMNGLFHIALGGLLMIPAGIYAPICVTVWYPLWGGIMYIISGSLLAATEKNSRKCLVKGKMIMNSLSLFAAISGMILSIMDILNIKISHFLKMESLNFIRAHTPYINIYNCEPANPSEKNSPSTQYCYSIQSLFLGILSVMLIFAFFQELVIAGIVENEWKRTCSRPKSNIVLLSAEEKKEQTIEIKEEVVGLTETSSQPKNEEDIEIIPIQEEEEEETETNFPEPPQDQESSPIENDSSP
# CD74 (human), sequence (P04233 whole entry): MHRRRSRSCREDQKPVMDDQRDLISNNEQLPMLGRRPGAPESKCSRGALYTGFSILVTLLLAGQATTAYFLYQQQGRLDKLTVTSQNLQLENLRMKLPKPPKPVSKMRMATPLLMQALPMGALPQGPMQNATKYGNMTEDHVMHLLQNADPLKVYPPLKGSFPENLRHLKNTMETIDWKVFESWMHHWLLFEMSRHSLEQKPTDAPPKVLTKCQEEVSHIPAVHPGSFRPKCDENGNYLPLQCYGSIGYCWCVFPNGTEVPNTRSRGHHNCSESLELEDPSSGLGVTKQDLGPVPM
substance,measurement,setting,value
74-(74)-(74) (antibody),"EC50 (nM), MTS assay, JeKo-1",[1],> 100 nM
Hex-hA20 (antibody),"EC50 (nM), MTS assay, Daudi",[2],5.8 nM
same,"EC50 (nM), MTS assay, Granta-519",[2],0.2 nM
same,"EC50 (nM), MTS assay, Mino",[2],3.4 nM
same,"EC50 (nM), MTS assay, Raji",[2],8 nM
20-Rap,"EC50, in vitro cytotoxicity, Daudi and Ramos",[2],0.1 nM
same,"EC50, in vitro cytotoxicity, Jeko-1",[2],0.02 nM
